Literature values in PMC7529620.

Molecular target: NCAM/GFRα1 (Homo sapiens) (UniProt P13591)
Sequence of UniProt P13591 (P13591 20-718, chain 1 of 2): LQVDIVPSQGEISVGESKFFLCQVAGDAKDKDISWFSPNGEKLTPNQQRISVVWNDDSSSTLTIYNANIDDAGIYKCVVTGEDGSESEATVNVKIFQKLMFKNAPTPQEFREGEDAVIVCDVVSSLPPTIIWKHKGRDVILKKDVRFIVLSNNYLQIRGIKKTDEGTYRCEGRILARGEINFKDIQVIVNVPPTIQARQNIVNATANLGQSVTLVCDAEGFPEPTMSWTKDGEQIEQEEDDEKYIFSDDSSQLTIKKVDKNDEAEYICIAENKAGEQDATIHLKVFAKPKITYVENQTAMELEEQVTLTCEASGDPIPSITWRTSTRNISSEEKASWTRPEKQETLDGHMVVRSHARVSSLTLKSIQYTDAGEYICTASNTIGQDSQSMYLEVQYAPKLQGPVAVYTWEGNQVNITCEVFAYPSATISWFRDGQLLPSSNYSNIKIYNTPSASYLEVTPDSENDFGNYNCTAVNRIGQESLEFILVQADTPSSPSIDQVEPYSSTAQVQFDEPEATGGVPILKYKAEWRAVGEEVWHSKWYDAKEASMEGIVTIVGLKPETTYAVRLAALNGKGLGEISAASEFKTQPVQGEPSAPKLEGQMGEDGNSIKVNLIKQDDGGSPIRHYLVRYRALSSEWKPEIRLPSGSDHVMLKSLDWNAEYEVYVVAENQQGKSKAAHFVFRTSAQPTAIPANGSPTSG
Sequence of UniProt P13591 (P56159 25-429, chain 2 of 2, further chain): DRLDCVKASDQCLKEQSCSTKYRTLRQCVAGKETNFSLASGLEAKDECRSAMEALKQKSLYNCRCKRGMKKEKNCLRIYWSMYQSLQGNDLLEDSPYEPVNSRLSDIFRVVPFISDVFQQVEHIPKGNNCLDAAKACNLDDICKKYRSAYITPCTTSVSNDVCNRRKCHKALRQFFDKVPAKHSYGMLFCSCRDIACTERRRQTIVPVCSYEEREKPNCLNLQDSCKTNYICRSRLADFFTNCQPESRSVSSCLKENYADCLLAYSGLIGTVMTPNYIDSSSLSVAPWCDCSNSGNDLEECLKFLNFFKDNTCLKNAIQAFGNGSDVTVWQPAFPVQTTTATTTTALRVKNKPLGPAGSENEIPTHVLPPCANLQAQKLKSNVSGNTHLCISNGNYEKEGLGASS

- Kd: 1 nM
Substance: GDNF (from UniProt P39905)
